Test system: non-Hodgkin's lymphoma
Experiment: Clinical monotherapy of rhTNFm1, non-Hodgkin's lymphoma
Format: in vivo, human
Settings: for Response Rate (%) CR / Response Rate (%) CR + PR / Response Rate (%) PR / Efficacy CR / Efficacy MR / Efficacy PD / Efficacy PR / Efficacy SD: Non-Hodgkin's, monotherapy; for Efficacy CR / Efficacy MR / Efficacy PD / Efficacy PR / Efficacy SD: patient count
Description: Patients were selected based on the following criteria: i) measurable, objective tumor; ii) Karnofsky performance status (KPS)≧60; iii) age 18-75; iv) major organs in basically normal condition; v) no chemotherapy, radiotherapy and biologic therapy within the last month; vi) predicted ≧3 mon. survival; and vii) with patient's informed consent signed.
Patients were excluded based on the following criteria: i) with history of allergic reactions to TNF or its derivatives; ii) pregnant or lactating women; iii) major organs with obvious damages or malfunction; iv) in ≧38° C. fever; v) with obvious tendency to haemorrhage; vi) with history of hypo- or hypertension; vii) with serious albuminemia; and viii) with strong tendency of disobedience or resistance.
Patients were removed from the evaluation if any of the following conditions apply: i) treatment was not completed according to the protocol; ii) incomplete records; and iii) treatment using cancer therapies not in the protocol. However, patients who withdrew due to adverse reactions to the therapy were still included in the evaluation.
The results of the treatment of tumors were evaluated based the following criteria: i) complete response (CR)—complete disappearance of observable pathological changes for at least 4 weeks; ii) partial response (PR)—reduction by ≧50% in tumor size measured by the product of the maximum circular and vertical dimensions for at least 4 weeks; iii) minimum response (MR)—reduction by >25% but <50% in tumor size measured by the product of the maximum circular and vertical dimensions for at least 4 weeks; iv) stabilized (SD)—reduction by ≦25% but without increase by >25% in tumor size measured by the product of the maximum circular and vertical dimensions for at least 4 weeks; and progression (PD): increase by >25% in tumor size in one or more sites.
Patients rested on day 1 and 2. The treatment cycle was 3-4 weeks.
Table II summaries results of the treatment of patients with malignant lymphoma, classified according to Hodgkin's disease and non-Hodgkin's lymphoma. Within each of category of lymphoma, patients were further classified into two groups: chemo-naïve and chemo-refractory. The chemo-naïve patients were patients who had never been treated with any anti-cancer agent previously whereas chemo-refractory patients were ones who failed treatment with one or more anti-cancer agent.

[1] = Chemo-naïve Grade I & II, 4 patients
[2] = Chemo-naïve Grade III & IV, 5 patients

B1: rhTNFm1: Recombinant human TNF-α mutant 1 expressed in E. coli; SEQ ID NO: 3 with N-terminal methionine (FIG. 1, 2) (protein)
chain: MRKRKPVAHVVANPQAEGQLQWLNRRANALLANGVELRDNQLVVPSEGLYLIYSQVLFKGQGCPSTHVLLTHTISRIAVSYQTKVNLLSAIKSPCQRETPEGAEAKPWYEPIYLGGVFQLEKGDRLSAEINRPDYLDFAESGQVYFGIIAQ
modifications: rhTNFm1 with Met
[1]
  Response Rate (%) CR: 0%
  Response Rate (%) CR + PR: 75%
  Response Rate (%) PR: 75%
  Efficacy CR: 0
  Efficacy MR: 1
  Efficacy PD: 0
  Efficacy PR: 3
  Efficacy SD: 0
[2]
  Response Rate (%) CR: 0%
  Response Rate (%) CR + PR: 60%
  Response Rate (%) PR: 60%
  Efficacy CR: 0
  Efficacy MR: 0
  Efficacy PD: 0
  Efficacy PR: 3
  Efficacy SD: 2
Chemo-naïve Total, 9 patients
  Response Rate (%) CR: 0%
  Response Rate (%) CR + PR: 66.67%
  Response Rate (%) PR: 66.67%
  Efficacy CR: 0
  Efficacy MR: 1
  Efficacy PD: 0
  Efficacy PR: 6
  Efficacy SD: 2
Chemo-refractory, 56 patients
  Response Rate (%) CR: 3.57%
  Response Rate (%) CR + PR: 25%
  Response Rate (%) PR: 21.43%
  Efficacy MR: 7
  Efficacy PD: 10
  Efficacy PR: 12
  Efficacy SD: 25
One NHL patient, before 50
  quality of life score after the treatment: 60
One NHL patient, before 90
  KPS after the treatment: 90

— patent US20060263331A1, “Therapeutic use of tumor necrosis factor-alpha mutein” (priority 2002, published 2006)
